Experimental data as given in US20250043022A1 (JIANGSU HENGRUI PHARMACEUTICALS, published 2025).

Key:
hIL5 = hIL5 (human, UniProt P05113 20-134); assay: ELISA
hTSLP = hTSLP (human, UniProt Q969D9 29-159); assay: ELISA
[1] = target: T1, human PSMA on cells (Cho-hPSMA, CHO-K1 cells overexpressing full-length human PSMA) (human, UniProt Q04609 1-750); assay: flow cytometry, Cho-hPSMA cells
T1 construct: whole, on cells; also called cell surface PSMA; PSMA-expressing Lncap cells
Protocol: The binding activity of antibodies to the stably transfected cell strain Cho-hPSMA, which overexpresses human PSMA, was measured by flow cytometry in this test example. The full-length gene encoding human PSMA was cloned into the mammalian cell expression vector pCDH. HEK293T cells (ATCC® CRL-11268) were co-transfected with three plasmids-pVSV-G, pCMV-dR8.91, and pCDH-human PSMA- to package viruses. After 48 h of transfection, viruses were collected to infect CHO-K1 cells.
Experiment 1: Cho-hPSMA was cultured in F12 medium with 10% FBS. The medium to which cells were inoculated was incubated in a 37° C., 5% CO₂ incubator for 2 days, and cells were added to a cell plate at 1×10⁵ cells/well and washed by centrifugation. Antibodies were serially diluted, and the antibody solutions were added to the cell plate at 100 μL/well. The plate was incubated at 4° C. for 1 h and then washed. An AF488-Goat Anti-human IgG Fc fluorescent secondary antibody dilution (1:400) was added to the cell plate at 100 μL/well, and the plate was incubated at 4° C. for 1 h and then washed. PBS was added to the cell plate at 100 μL/well before plate reading.

[2] = target: T2, human PSMA antigen (R&D SYSTEM, 4234-ZN-010) (human, UniProt Q04609 44-750); assay: ELISA, plate-bound PSMA antigen
T2 construct: bought antigen
T2 sequence (Q04609 44-750 limits assumed): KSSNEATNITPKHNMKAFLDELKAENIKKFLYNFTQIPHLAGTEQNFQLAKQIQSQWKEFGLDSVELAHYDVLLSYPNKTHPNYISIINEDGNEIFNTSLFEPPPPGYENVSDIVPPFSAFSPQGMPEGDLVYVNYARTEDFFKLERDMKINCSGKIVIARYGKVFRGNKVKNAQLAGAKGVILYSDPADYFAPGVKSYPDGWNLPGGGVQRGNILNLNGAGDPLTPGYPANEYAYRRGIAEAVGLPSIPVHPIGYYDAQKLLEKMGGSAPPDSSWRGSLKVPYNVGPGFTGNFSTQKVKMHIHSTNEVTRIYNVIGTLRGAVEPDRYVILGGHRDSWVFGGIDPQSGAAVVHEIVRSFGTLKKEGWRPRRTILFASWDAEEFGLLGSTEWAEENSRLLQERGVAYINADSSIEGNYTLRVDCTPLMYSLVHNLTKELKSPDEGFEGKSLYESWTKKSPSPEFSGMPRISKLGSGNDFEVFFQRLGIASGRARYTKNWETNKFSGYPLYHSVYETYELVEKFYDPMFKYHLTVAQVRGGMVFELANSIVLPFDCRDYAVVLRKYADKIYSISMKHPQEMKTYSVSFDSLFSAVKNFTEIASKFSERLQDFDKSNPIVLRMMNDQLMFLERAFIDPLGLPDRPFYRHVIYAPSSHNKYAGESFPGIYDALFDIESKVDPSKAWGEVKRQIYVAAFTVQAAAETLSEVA
Protocol: To test the ability of the PSMA-targeting humanized antibodies of the present disclosure to bind to PSMA antigen, the ELISA method was used in this test example to measure the binding of the PSMA-targeting humanized antibodies to human PSMA antigen (purchased from R&D SYSTEM, 4234-ZN-010). The specific steps are as follows: A 96-well plate was coated with PSMA antigen at 1 μg/well and placed at 4° C. overnight. After the supernatant was discarded, the plate was blocked with 5% skim milk for 2 h. Different concentrations of humanized antibodies were prepared using 1% BSA. The initial concentration was 10 μg/mL and was serially diluted 4-fold to obtain 12 concentrations. After the blocked 96-well plate was washed twice, the […] was added, and the plate was incubated at 4° C. for 1 h. After four washes, the plate was incubated with Strepidation-HRP secondary antibody (1:10,000) at 4° C. for 1 h. After color development with TMB, the reaction was stopped with 0.1 M sulfuric acid.

T1 sequence (Q04609 whole entry): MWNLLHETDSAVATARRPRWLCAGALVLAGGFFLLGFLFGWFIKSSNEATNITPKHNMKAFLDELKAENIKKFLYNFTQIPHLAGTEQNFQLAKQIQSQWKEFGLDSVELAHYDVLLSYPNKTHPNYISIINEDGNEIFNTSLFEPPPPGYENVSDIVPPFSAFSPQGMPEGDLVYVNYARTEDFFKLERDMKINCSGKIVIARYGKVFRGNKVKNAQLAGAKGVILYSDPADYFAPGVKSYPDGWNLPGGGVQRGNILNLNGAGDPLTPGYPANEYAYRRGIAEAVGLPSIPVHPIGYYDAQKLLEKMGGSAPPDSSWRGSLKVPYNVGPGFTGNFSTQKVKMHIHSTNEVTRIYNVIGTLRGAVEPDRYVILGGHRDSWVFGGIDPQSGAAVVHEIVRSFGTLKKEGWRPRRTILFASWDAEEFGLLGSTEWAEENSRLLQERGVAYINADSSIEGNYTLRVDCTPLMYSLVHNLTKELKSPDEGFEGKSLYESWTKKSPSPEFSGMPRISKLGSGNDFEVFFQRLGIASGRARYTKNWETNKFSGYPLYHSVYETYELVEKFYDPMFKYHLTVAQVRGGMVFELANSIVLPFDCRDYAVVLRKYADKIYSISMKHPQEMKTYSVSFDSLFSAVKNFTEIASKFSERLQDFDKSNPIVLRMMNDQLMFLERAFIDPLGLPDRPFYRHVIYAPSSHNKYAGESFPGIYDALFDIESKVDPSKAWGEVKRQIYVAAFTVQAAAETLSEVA

Binder | EC50 (hIL5) [nM] | EC50 (hTSLP) [nM] | EC50 [1] [µg/mL] | EC50 [2] [µg/mL] | Top (maximum absorbance) [2] [absorbance]
HJ-3 (bispecific antibody) chain 1: not shown chain 2: DIQMTQSPSSVSASVGDRVTITCRASQDIANYLSWYQQKPGKSPKLLIYGTSNLEVGVPSRFSGSRSGTDFTLTISSLQPEDFATYYCLQDKEFPRTFGGGTKVEIKGGGGSSGAPRFLTRPLAFVVSVGKDATLSSQIVGNPTPQVSWEKDKQPVTAGARFRLAQDGDLYRLKILDLQLSDSGQYVSRARNAIGEAFACLGLQVDAEA chain 3: EVQLVQSGAEVKKPGSSVKVSCKASGYTFSNYLIEWVRQAPGQGLEWIGVIDPGVGDTNYNENFKGRATLTADKSTSTAYIELSSLRSEDTAVYYCAREDNTGTAFDYWGQGTTVTVSSASTKGPSVFPLAPSSKSTSGGTAALGCLVKDYFPEPVTVSWNSGALTSGVHTFPAVLQSSGLYSLSSVVTVPSSSLGTQTYICNVNHKPSNTKVDKKVEPKSCDKTHTCPPCPAPEAAGGPSVFLFPPKPKDTLMISRTPEVTCVVVDVSHEDPEVKFNWYVDGVEVHNAKTKPREEQYNSTYRVVSVLTVLHQDWLNGKEYKCKVSNKALPAPIEKTISKAKGQPREPQVCTLPPSREEMTKNQVSLSCAVKGFYPSDIAVEWESNGQPENNYKTTPPVLDSDGSFFLVSKLTVDKSRWQQGNVFSCSVMHEALHNHYTQKSLSLSPGKDYKDDDDK chain 4: SIVMTQTPLSLSVTPGQPASISCKASQSVSSDVTWYLQKPGQSPQLLIYYVSEHYTGVPDRFSGSGYGTDFTLKISRVEAEDVGVYYCQQHHRFPLTFGQGTKLEIKRTVAAPSVFIFPPSDEQLKSGTASVVCLLNNFYPREAKVQWKVDNALQSGNSQESVTEQDSKDSTYSLSSTLTLSKADYEKHKVYACEVTHQGLSSPVTKSFNRGEC | 17.4 | 3.23 | – | – | –
HJ-6 (bispecific antibody) chain 1: not shown chain 2: DIQMTQSPSSVSASVGDRVTITCRASQDIANYLSWYQQKPGKSPKLLIYGTSNLEVGVPSRFSGSRSGTDFTLTISSLQPEDFATYYCLQDKEFPRTFGGGTKVEIKGGGGSSGAPRFLTCPKASVVSVGKDATLSSQIVGNPFPQVSWEKDKQPVTAGVRFRLAQDGDLYRLKILDLQLSDSGQYVSRARNAHGEAFACLGLQVDAEA chain 3: EVQLVQSGAEVKKPGSSVKVSCKASGYTFSNYLIEWVRQAPGQGLEWIGVIDPGVGDTNYNENFKGRATLTADKSTSTAYIELSSLRSEDTAVYYCAREDNTGTAFDYWGQGTTVTVSSASTKGPSVFPLAPSSKSTSGGTAALGCLVKDYFPEPVTVSWNSGALTSGVHTFPAVLQSSGLYSLSSVVTVPSSSLGTQTYICNVNHKPSNTKVDKKVEPKSCDKTHTCPPCPAPEAAGGPSVFLFPPKPKDTLMISRTPEVTCVVVDVSHEDPEVKFNWYVDGVEVHNAKTKPREEQYNSTYRVVSVLTVLHQDWLNGKEYKCKVSNKALPAPIEKTISKAKGQPREPQVCTLPPSREEMTKNQVSLSCAVKGFYPSDIAVEWESNGQPENNYKTTPPVLDSDGSFFLVSKLTVDKSRWQQGNVFSCSVMHEALHNHYTQKSLSLSPGK chain 4: SIVMTQTPLSLSVTPGQPASISCKASQSVSSDVTWYLQKPGQSPQLLIYYVSEHYTGVPDRFSGSGYGTDFTLKISRVEAEDVGVYYCQQHHRFPLTFGQGTKLEIKRTVAAPSVFIFPPSDEQLKSGTASVVCLLNNFYPREAKVQWKVDNALQSGNSQESVTEQDSKDSTYSLSSTLTLSKADYEKHKVYACEVTHQGLSSPVTKSFNRGEC | 37 | 2.88 | – | – | –
HJ-5 (bispecific antibody) chain 1: not shown chain 2: DIQMTQSPSSVSASVGDRVTITCRASQDIANYLSWYQQKPGKSPKLLIYGTSNLEVGVPSRFSGSRSGTDFTLTISSLQPEDFATYYCLQDKEFPRTFGGGTKVEIKGGGGSSGAPRFLTRPKASVVSVGKDATLSSQIVGNPFPQVSWEKDKQPVTAGVRFRLAQDGDLYRLKILDLQLSDSGQYVSRARNAHGEAFACLGLQVDAEA chain 3: EVQLVQSGAEVKKPGSSVKVSCKASGYTFSNYLIEWVRQAPGQGLEWIGVIDPGVGDTNYNENFKGRATLTADKSTSTAYIELSSLRSEDTAVYYCAREDNTGTAFDYWGQGTTVTVSSASTKGPSVFPLAPSSKSTSGGTAALGCLVKDYFPEPVTVSWNSGALTSGVHTFPAVLQSSGLYSLSSVVTVPSSSLGTQTYICNVNHKPSNTKVDKKVEPKSCDKTHTCPPCPAPEAAGGPSVFLFPPKPKDTLMISRTPEVTCVVVDVSHEDPEVKFNWYVDGVEVHNAKTKPREEQYNSTYRVVSVLTVLHQDWLNGKEYKCKVSNKALPAPIEKTISKAKGQPREPQVCTLPPSREEMTKNQVSLSCAVKGFYPSDIAVEWESNGQPENNYKTTPPVLDSDGSFFLVSKLTVDKSRWQQGNVFSCSVMHEALHNHYTQKSLSLSPGK chain 4: SIVMTQTPLSLSVTPGQPASISCKASQSVSSDVTWYLQKPGQSPQLLIYYVSEHYTGVPDRFSGSGYGTDFTLKISRVEAEDVGVYYCQQHHRFPLTFGQGTKLEIKRTVAAPSVFIFPPSDEQLKSGTASVVCLLNNFYPREAKVQWKVDNALQSGNSQESVTEQDSKDSTYSLSSTLTLSKADYEKHKVYACEVTHQGLSSPVTKSFNRGEC | 16 | 2.64 | – | – | –
Chi13 (antibody, human IgG1, kappa, V domains shown, chimeric antibody, hIgG1/kappa) VH: QVQLKESGPGLVAPSQSLSITCTVSGFSLTNYAISWVRQPPGKGLEWLGVIWTGGGTHYNSALKSRLSISKDNSKSQVFLKMNSLQTDDTARYYCARKGNYYGSSLYYYAMNYWGQGTSVTVSS VL: DIQMTQTTSSLSASLGDRVTISCRASQDISNYLNWYQQKPDGTVKLLIYYTSRLQSGVPSRFSGSGSGTDYSLSISNLEQEDIATYFCQQGDTLPYTFGGGTKLEIRT | – | – | 1.21 | 0.0409 | 2.11

Other lines, results leading:

EC50 (hIL5) [nM] | EC50 (hTSLP) [nM] | EC50 [1] [µg/mL] | EC50 [2] [µg/mL] | Top (maximum absorbance) [2] [absorbance] | Binder
17.7 | 2.18 | – | – | – | HJ-7 (bispecific antibody) chain 1: not shown chain 2: DIQMTQSPSSVSASVGDRVTITCRASQDIANYLSWYQQKPGKSPKLLIYGTSNLEVGVPSRFSGSRSGTDFTLTISSLQPEDFATYYCLQDKEFPRTFGGGTKVEIKGGGGSSGAPRFLTRPKASVVSVGKDATLSCQIVGNPFPQVSWEKDKQPVTAGVRFRLAQDGDLYRLKILDLQLSDSGQYVCRARNAHGEAFACLGLQVDAEA chain 3: EVQLVQSGAEVKKPGSSVKVSCKASGYTFSNYLIEWVRQAPGQGLEWIGVIDPGVGDTNYNENFKGRATLTADKSTSTAYIELSSLRSEDTAVYYCAREDNTGTAFDYWGQGTTVTVSSASTKGPSVFPLAPSSKSTSGGTAALGCLVKDYFPEPVTVSWNSGALTSGVHTFPAVLQSSGLYSLSSVVTVPSSSLGTQTYICNVNHKPSNTKVDKKVEPKSCDKTHTCPPCPAPEAAGGPSVFLFPPKPKDTLMISRTPEVTCVVVDVSHEDPEVKFNWYVDGVEVHNAKTKPREEQYNSTYRVVSVLTVLHQDWLNGKEYKCKVSNKALPAPIEKTISKAKGQPREPQVCTLPPSREEMTKNQVSLSCAVKGFYPSDIAVEWESNGQPENNYKTTPPVLDSDGSFFLVSKLTVDKSRWQQGNVFSCSVMHEALHNHYTQKSLSLSPGK chain 4: SIVMTQTPLSLSVTPGQPASISCKASQSVSSDVTWYLQKPGQSPQLLIYYVSEHYTGVPDRFSGSGYGTDFTLKISRVEAEDVGVYYCQQHHRFPLTFGQGTKLEIKRTVAAPSVFIFPPSDEQLKSGTASVVCLLNNFYPREAKVQWKVDNALQSGNSQESVTEQDSKDSTYSLSSTLTLSKADYEKHKVYACEVTHQGLSSPVTKSFNRGEC
18.7 | 3.33 | – | – | – | HJ-8 (bispecific antibody) chain 1: not shown chain 2: DIQMTQSPSSVSASVGDRVTITCRASQDIANYLSWYQQKPGKSPKLLIYGTSNLEVGVPSRFSGSRSGTDFTLTISSLQPEDFATYYCLQDKEFPRTFGGGTKVEIKRTVASSGAPRFLTRPKASVVSVGKDATLSSQIVGNPFPQVSWEKDKQPVTAGVRFRLAQDGDLYRLKILDLQLSDSGQYVSRARNAHGEAFACLGLQVDAEA chain 3: EVQLVQSGAEVKKPGSSVKVSCKASGYTFSNYLIEWVRQAPGQGLEWIGVIDPGVGDTNYNENFKGRATLTADKSTSTAYIELSSLRSEDTAVYYCAREDNTGTAFDYWGQGTTVTVSSASTKGPSVFPLAPSSKSTSGGTAALGCLVKDYFPEPVTVSWNSGALTSGVHTFPAVLQSSGLYSLSSVVTVPSSSLGTQTYICNVNHKPSNTKVDKKVEPKSCDKTHTCPPCPAPEAAGGPSVFLFPPKPKDTLMISRTPEVTCVVVDVSHEDPEVKFNWYVDGVEVHNAKTKPREEQYNSTYRVVSVLTVLHQDWLNGKEYKCKVSNKALPAPIEKTISKAKGQPREPQVCTLPPSREEMTKNQVSLSCAVKGFYPSDIAVEWESNGQPENNYKTTPPVLDSDGSFFLVSKLTVDKSRWQQGNVFSCSVMHEALHNHYTQKSLSLSPGK chain 4: SIVMTQTPLSLSVTPGQPASISCKASQSVSSDVTWYLQKPGQSPQLLIYYVSEHYTGVPDRFSGSGYGTDFTLKISRVEAEDVGVYYCQQHHRFPLTFGQGTKLEIKRTVAAPSVFIFPPSDEQLKSGTASVVCLLNNFYPREAKVQWKVDNALQSGNSQESVTEQDSKDSTYSLSSTLTLSKADYEKHKVYACEVTHQGLSSPVTKSFNRGEC
